In PMC12276331, “Nanomechanical binding mechanism of ligands drives agonistic activity” (Nature Communications, 2025):

Legend:
[1] = molecular target: T1, transmembrane hCD40 receptor expressed on the surface of CHO cells (CHO-CD40-GFP) (human, UniProt P25942 21-277); test: single-molecule force spectroscopy (AFM, SMFS); hCD40L coupled by its His6-tag to the PEG-tris-NTA AFM tip; living CHO cells expressing hCD40; room temperature; HEPES buffer (137 mM NaCl, 2.7 mM KCl, 10 mM HEPES, pH 7.4) with 50 µM NiCl2; contact time and pulling speed varied; Bell-Evans and Markov binding models; conditions: one partner purified
T1 construct: CD40 (TNFR superfamily), human; expressed from a CD40 green fluorescent protein fusion construct (Origene #RG201977) on CHO cells; source: CHO cells, transfected (Lipofectamine 2000), G418-selected and sorted by GFP; on living cells
T1 sequence (P25942 21-277): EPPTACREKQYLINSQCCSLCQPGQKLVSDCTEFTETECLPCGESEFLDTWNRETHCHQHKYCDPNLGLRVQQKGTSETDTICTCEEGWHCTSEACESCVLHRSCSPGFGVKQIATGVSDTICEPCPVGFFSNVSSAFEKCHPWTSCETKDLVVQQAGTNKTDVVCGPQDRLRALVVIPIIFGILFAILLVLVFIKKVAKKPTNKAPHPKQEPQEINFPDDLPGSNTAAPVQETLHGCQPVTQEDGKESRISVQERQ

[2] = molecular target: T1, transmembrane hCD40 receptor expressed …; test: as above; conditions: one partner purified; remark: listed apart in the source

B1: Active trimeric human CD40 ligand (hCD40L/hCD154; residues 116G-261L) with N-terminal His6-tag (CDL-H5248) (ligand, UniProt P29965 116-261, looked up)
chain: GDQNPQIAAHVISEASSKTTSVLQWAEKGYYTMSNNLVTLENGKQLTVKRQGLYYIYAQVTFCSNREASSQAPFIASLCLKSPGRFERILLRAANTHSSAKPCGQQSIHLGGVFELQPGASVFVNVTDPSQVSHGTGFTSFGLLKL
notes: CD40 ligand (CD154), human, residues 116G-261L; Used for SMFS (coupled to the tip by its His6-tag through tris-NTA/Ni) and for HS-AFM; also called trimeric hCD40L; source: bought: AcroBiosystems, USA (CDL-H5248); not shown: His6, N-terminal, kept
Kd [1]: 3.2 µM
Kd [2]: 3.3 µM
koff [2]: 0.35 s⁻¹
kon [2]: 160000 M⁻¹ s⁻¹
